Test results taken from PMC2172684 (The Journal of Cell Biology, 2003).
Like-named read-outs stand apart in the source and are kept apart here.

B1: importin β (304–876) F688A (domain or fragment, human, UniProt Q14974 304-876, looked up)
chain: GRPPEHTSKFYAKGALQYLVPILTQTLTKQDENDDDDDWNPCKAAGVCLMLLATCCEDDIVPHVLPFIKEHIKNPDWRYRDAAVMAFGCILEGPEPSQLKPLVIQAMPTLIELMKDPSVVVRDTAAWTVGRICELLPEAAINDVYLAPLLQCLIEGLSAEPRVASNVCWAFSSLAEAAYEAADVADDQEEPATYCLSSSFELIVQKLLETTDRPDGHQNNLRSSAYESLMEIVKNSAKDCYPAVQKTTLVIMERLQQVLQMESHIQSTSDRIQFNDLQSLLCATLQNVLRKVQHQDALQISDVVMASLLRMFQSTAGSGGVQEDALMAVSTLVEVLGGEFLKYMEAFKPFLGIGLKNYAEYQVCLAAVGLVGDLCRALQSNIIPACDEVMQLLLENLGNENVHRSVKPQILSVFGDIALAIGGEFKKYLEVVLNTLQQASQAQVDKSDYDMVDYLNELRESCLEAYTGIVQGLKGDQENVHPDVMLVQPRVEFILSFIDHIAGDEDHTDGVVACAAGLIGDLCTAFGKDVLKLVEARPMIHELLTEGRRSKTNKAKTLATWATKELRKLKNQA
B2: GST-tagged Nup153 (895–1475) (domain or fragment, UniProt P49790 895-1475, looked up)
chain: SNSAASSSFKFGVSSSSSGPSQTLTSTGNFKFGDQGGFKIGVSSDSGSINPMSEGFKFSKPIGDFKFGVSSESKPEEVKKDSKNDNFKFGLSSGLSNPVSLTPFQFGVSNLGQEEKKEELPKSSSAGFSFGTGVINSTPAPANTIVTSENKSSFNLGTIETKSASVAPFTCKTSEAKKEEMPATKGGFSFGNVEPASLPSASVFVLGRTEEKQQEPVTSTSLVFGKKADNEEPKCQPVFSFGNSEQTKDENSSKSTFSFSMTKPSEKESEQPAKATFAFGAQTSTTADQGAAKPVFSFLNNSSSSSSTPATSAGGGIFGSSTSSSNPPVATFVFGQSSNPVSSSAFGNTAESSTSQSLLFSQDSKLATTSSTGTAVTPFVFGPGASSNNTTTSGFGFGATTTSSSAGSSFVFGTGPSAPSASPAFGANQTPTFGQSQGASQPNPPGFGSISSSTALFPTGSQPAPPTFGTVSSSSQPPVFGQQPSQSAFGSGTTPNSSSAFQFGSSTTNFNFTNNSPSGVFTFGANSSTPAASAQPSGSGGFPFNQSPAAFTVGSNGKNVFSSSGTSFSGRKIKTAVRRRK
B3: importin β m-N/m-C (natural protein)
chain: MELITILEKTVSPDRLELEAAQKFLERAAVENLPTFLVELSRVLANPGNSQVARVAAGLQIKNSLTSKDPDIKAQYQQRWLAIDANARREVKNYVLQTLGTETYRPSSASQCVAGIACAEIPVNQWPELIPQLVANVTNPNSTEHMKESTLEAIGYICQDIDPEQLQDKSNEILTAIAQGMRKEEPSNNVKLAATNALLNSLEFTKANFDKESERHAIMQVVCEATQCPDTRVRVAALQNLVKIMSLYYQYMETAMGPALFARTIEAMKSDIDEVALQGIEFWSNVCDEEMDLAIEASEAAEQGRPPEHTSKFYAKGALQYLVPILTQTLTKQDENDDDDDWNPCKAAGVCLMLLATCCEDDIVPHVLPFIKEHIKNPDWRYRDAAVMAFGCILEGPEPSQLKPLVIQAMPTLIELMKDPSVVVRDTAAWTVGRICELLPEAAINDVYLAPLLQCLIEGLSAEPRVASNVCWAFSSLAEAAYEAADVADDQEEPATYCLSSSFELIVQKLLETTDRPDGHQNNLRSSAYESLMEIVKNSAKDCYPAVQKTTLVIMERLQQVLQMESHIQSTSDRIQFNDLQSLLCATLQNVLRKVQHQDALQISDVVMASLDRMFQSTAGSGGVQEDALMAVSTLVEVLGGEFLKYMEAFKPFLGIGLKNYAEYQVCLAAVGLVGDLCRALQSNIIPACDEVMQLLLENLGNENVHRSVKPQILSVFGDIALAIGGEFKKYLEVVLNTLQQASQAQVDKSDYDMVDYLNELRESCLEAYTGIVQGLKGDQENVHPDVMLVQPRVEFILSFIDHIAGDEDHTDGVVACAAGLIGDLCTAFGKDVLKLVEARPMIHELLTEGRRSKTNKAKTLATWATKELRKLKNQA

Legend:
Assay in all cases: ELISA
[1] = target: B2
importin β F217A/Y255A = importin β F217A/Y255A (human, UniProt Q14974 1-876, F217A | Y255A)
importin β I178D = importin β I178D (human, UniProt Q14974 1-876, I178D)
importin β F217A = importin β F217A (human, UniProt Q14974 1-876, F217A)
importin β I178D/Y255A = importin β I178D/Y255A (human, UniProt Q14974 1-876, I178D | Y255A)
importin β I178A = importin β I178A (human, UniProt Q14974 1-876, I178A)
importin β E214A = importin β E214A (human, UniProt Q14974 1-876, E214A)
importin β I263R = importin β I263R (human, UniProt Q14974 1-876, I263R)
importin β I178A/E214A = importin β I178A/E214A (human, UniProt Q14974 1-876, I178A | E214A)
importin β Y255A = importin β Y255A (human, UniProt Q14974 1-876, Y255A)
[2] = target: T1, importin β I178A/F217A/Y255A/I263R (m-N) (human, UniProt Q14974 1-876, I178A | F217A | Y255A | I263R)
wild-type importin β [3] = target: T2, wild-type importin β (human, UniProt Q14974 1-876)
[4] = target: importin β L612D/F688A (m-C) (human, UniProt Q14974 1-876, L612D | F688A)
[5] = target: T1, importin β I178A/F217A/Y255A/I263R (m-N); remark: listed apart in the source
wild-type importin β [6] = target: T2, wild-type importin β; remark: listed apart in the source
GST–RanGTP = GST–RanGTP (UniProt P62826 1-216)

Binder: B1
fold decrease in affinity against importin β (304–876) [1]: ~2 fold

Binder: B2
Kd (importin β F217A/Y255A): 32.4 ± 5.3 nM
Kd (importin β I178D): 40.1 ± 9.1 nM
Kd (importin β F217A): 2.1 ± 0.2 nM
Kd (importin β I178D/Y255A): 68.3 ± 9 nM
Kd (importin β I178A): 1.1 ± 0.1 nM
Kd (importin β E214A): 1.8 ± 0.1 nM
Kd (importin β I263R): 2.5 ± 0.3 nM
Kd (importin β I178A/E214A): 27 ± 4.1 nM
Kd (importin β Y255A): 3.5 ± 0.3 nM
Kd [2]: 99 ± 15.2 nM
Kd (wild-type importin β [3]): 1.1 ± 0.1 nM
Kd [4]: 1.2 ± 0.1 nM
Kd [5]: 91.3 ± 11.8 nM
Kd (wild-type importin β [6]): 1 ± 0.1 nM

Binder: B3
Kd (GST–RanGTP): 4.4 nM
